The values that follow come from patent publication US20240117022A1 (GANYMED PHARMACEUTICALS, published 2024).

In test [1] the target is T1, human CLD18A1 (human, UniProt P56856 1-261).
T1 construct: Expressed on transfected HEK293 or CHO cells; also called claudin 18 splice variant 1; NP_057453
Put plainly: overview table of murine antibodies.

Test [2] addresses T2, murine CLD18A1 (mouse, UniProt P56857 1-264).
T2 construct: Transiently expressed on HEK293 cells; also called mouse CLD18A1; NP_062789
As to the kind of experiment: overview table of murine antibodies.

The target in test [3] is T1, human CLD18A1. As to the kind of experiment: overview table of chimeric antibodies.
In test [4] the target is T1, human CLD18A1. Put plainly: flow cytometry on HEK293-CLD18A1 cells. A general note: In flow cytometry, cells or beads pass a laser one at a time.
Test [5] has as its target T1, human CLD18A1. As to the kind of experiment: summary of Example 10.
Test [6] deals with T2, murine CLD18A1. As to the kind of experiment: summary of Example 10.

B1: 163E12 (antibody, IgG3, V domains shown)
VH: QIQLVQSGPELKKPGETVKISCKASGYTFTNYGMNWVKQAPGKGLKWMGWINTNTGEPTYAEEFKGRFAFSLETSASTAYLQINNLKNEDTATYFCARLGFGNAMDYWGQGTSVTVSS
VL: DIVMTQSPSSLTVTAGEKVTMSCKSSQSLLNSGNQKNYLTWYQQKPGQPPKLLIYWASTRESGVPDRFTGSGSGTDFTLTISSVQAEDLAVYYCQNDYSYPLTFGAGTKLELK
notes: mouse monoclonal IgG3, kappa; also called 182-D1106-294; DSM ACC2809
Consider B1, for which the binding result in the test with human CLD18A1 [1] and in the test with murine CLD18A1 [2] was “no binding” throughout.

B2: ch-163E12 (antibody, V domains shown)
VH: QIQLVQSGPELKKPGETVKISCKASGYTFTNYGMNWVKQAPGKGLKWMGWINTNTGEPTYAEEFKGRFAFSLETSASTAYLQINNLKNEDTATYFCARLGFGNAMDYWGQGTSVTVSS
VL: DIVMTQSPSSLTVTAGEKVTMSCKSSQSLLNSGNQKNYLTWYQQKPGQPPKLLIYWASTRESGVPDRFTGSGSGTDFTLTISSVQAEDLAVYYCQNDYSYPLTFGAGTKLELKR
notes: Mouse/human chimeric, human gamma-1 and kappa constant regions; also called chimeric 163E12
B2: the binding result with human CLD18A1 [3] was “no binding”.

B3: 125E1 (antibody, IgG2a, V domains shown)
VH: QVQLQQSGAELARPGASVKLSCKASGYTFTDYYINWVKQRTGQGLEWIGEIYPGSGNTYYNEKFKGKATLTADKSSSTAYMQLSSLTSEDSAVYFCARSYGAFDYWGQGTTLTVSS
VL: DIVMTQSQKFMSTSVGDRVSITCKASQNVRTAVAWYQQKPGQSPKALIYLASNRHTGVPDRFTGSGSGTDFTLTISNVQSEDLADYFCLQHWNYPLTFGGGTKLEIK
notes: mouse monoclonal IgG2a, kappa; also called 182-D1106-279; DSM ACC2808
Turning to B3, the binding result in the test with human CLD18A1 [1] and with murine CLD18A1 [2] was “no binding” in each case.

B4: ch-125E1 (antibody, V domains shown)
VH: QVQLQQSGAELARPGASVKLSCKASGYTFTDYYINWVKQRTGQGLEWIGEIYPGSGNTYYNEKFKGKATLTADKSSSTAYMQLSSLTSEDSAVYFCARSYGAFDYWGQGTTLTVSS
VL: DIVMTQSQKFMSTSVGDRVSITCKASQNVRTAVAWYQQKPGQSPKALIYLASNRHTGVPDRFTGSGSGTDFTLTISNVQSEDLADYFCLQHWNYPLTFGGGTKLEIKR
notes: Mouse/human chimeric, human gamma-1 and kappa constant regions; also called chimeric 125E1
In the case of B4, the binding result with human CLD18A1 [3] is reported as “no binding”.

B5: ch-166E2 (antibody, V domains shown)
VH: QVQLQQSGPELVKPGASVKMSCKASGYTFTDYVISWVKQRTGQGLEWIGEIYPGSGSTYYNEKFKGKATLTADKSSNTAYMQLSSLTSEDSAVYFCARGVLLRAMDYWGQGTSVTVSS
VL: DIVMSQSPSSLAVSAGEKVTMSCKSSQSLLNSRTRKNYLAWYQQKPGQSPKLLIYWASTRESGVPDRFTGSGSGTDFTLTISSVQAEDLAVYYCKQSYNLYTFGGGTKLEIKR
notes: Mouse/human chimeric, human gamma-1 and kappa constant regions; also called chimeric 166E2
For B5, the binding result in the test with human CLD18A1 [4] is listed as “no binding”.

B6: 166E2 (antibody, IgG3, V domains shown)
VH: QVQLQQSGPELVKPGASVKMSCKASGYTFTDYVISWVKQRTGQGLEWIGEIYPGSGSTYYNEKFKGKATLTADKSSNTAYMQLSSLTSEDSAVYFCARGVLLRAMDYWGQGTSVTVSS
VL: DIVMSQSPSSLAVSAGEKVTMSCKSSQSLLNSRTRKNYLAWYQQKPGQSPKLLIYWASTRESGVPDRFTGSGSGTDFTLTISSVQAEDLAVYYCKQSYNLYTFGGGTKLEIK
notes: mouse monoclonal IgG3, kappa; also called 182-D1106-308
For B6, the binding result with human CLD18A1 [5] and with murine CLD18A1 [6] was “no binding” throughout.

B7: ch-43A11 (antibody, V domains shown)
VH: QVQLQQSGAELMKPGASVKISCKATGYTFSSYWIEWVKQRPGHGLEWIGEILPGSGSTNYNEKFKGKATFTADTSSNTAYMQLSSLTSEDSAVYYCARYDYPWFAYWGQGTLVTVSA
VL: QIVLTQSPAIMSASPGEKVTITCSASSSVSYMHWFQQKPGTSPKLWIYSTSNLASGVPARFSGSGSGTSYSLTISRMEAEDAATYYCQQRSSYPPTFGGGTKLEIKR
notes: Mouse/human chimeric, human gamma-1 and kappa constant regions; also called chimeric 43A11
For the molecule B7, the binding result with human CLD18A1 [4] is “no binding”.

B8: 43A11 (antibody, IgG2a, V domains shown)
VH: QVQLQQSGAELMKPGASVKISCKATGYTFSSYWIEWVKQRPGHGLEWIGEILPGSGSTNYNEKFKGKATFTADTSSNTAYMQLSSLTSEDSAVYYCARYDYPWFAYWGQGTLVTVSA
VL: QIVLTQSPAIMSASPGEKVTITCSASSSVSYMHWFQQKPGTSPKLWIYSTSNLASGVPARFSGSGSGTSYSLTISRMEAEDAATYYCQQRSSYPPTFGGGTKLEIK
notes: mouse monoclonal IgG2a, kappa; also called 182-D1106-062; DSM ACC2742
Consider B8, for which, in the test with human CLD18A1 [5], the binding result is “no binding”.
